Data from patent US20140017253A1 (ONCOMED PHARMACEUTICALS, published 2014).
Numbering of substitutions follows the chain as printed.

T1: LGR5-Fc fusion protein (human, UniProt O75473 22-564)
T1 construct: range 22-564; Expressed in insect cells with baculovirus, purified on protein A; also called soluble LGR5-Fc; not shown: human Fc
T1 sequence (looked up): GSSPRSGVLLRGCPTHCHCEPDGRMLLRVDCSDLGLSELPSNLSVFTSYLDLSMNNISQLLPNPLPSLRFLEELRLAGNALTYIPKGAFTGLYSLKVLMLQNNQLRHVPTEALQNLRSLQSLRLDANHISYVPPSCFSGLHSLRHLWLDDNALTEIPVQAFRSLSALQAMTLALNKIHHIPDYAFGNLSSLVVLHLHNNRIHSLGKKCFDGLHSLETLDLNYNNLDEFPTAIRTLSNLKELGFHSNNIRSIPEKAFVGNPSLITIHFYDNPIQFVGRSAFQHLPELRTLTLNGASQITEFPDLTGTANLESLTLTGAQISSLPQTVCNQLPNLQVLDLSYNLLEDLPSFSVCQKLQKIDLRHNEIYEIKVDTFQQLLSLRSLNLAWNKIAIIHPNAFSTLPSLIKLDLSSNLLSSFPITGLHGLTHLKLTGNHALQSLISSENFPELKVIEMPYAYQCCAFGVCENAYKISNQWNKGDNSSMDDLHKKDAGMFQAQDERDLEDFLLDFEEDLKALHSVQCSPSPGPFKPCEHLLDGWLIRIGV

T2: recombinant human RSPO3 protein, biotinylated (human, UniProt Q9BXY4 22-272, biotinylated (sites not given))
T2 sequence: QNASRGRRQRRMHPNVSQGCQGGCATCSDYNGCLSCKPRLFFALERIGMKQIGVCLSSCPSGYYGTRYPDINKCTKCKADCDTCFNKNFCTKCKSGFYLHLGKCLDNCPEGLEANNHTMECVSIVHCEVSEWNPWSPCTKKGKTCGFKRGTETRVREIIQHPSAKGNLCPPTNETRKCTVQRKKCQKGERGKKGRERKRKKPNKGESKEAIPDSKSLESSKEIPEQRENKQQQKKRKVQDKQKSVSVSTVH

T3: human RSPO3 (recombinant, R&D Systems) (human, UniProt Q9BXY4 22-272)
T3 sequence: T2 sequence

B1: RSPO1-Fc fusion protein (Fc fusion)
chain: SRGIKGKRQRRISAEGSQACAKGCELCSEVNGCLKCSPKLFILLERNDIRQVGVCLPSCPPGYFDARNPDMNKCIKCKIEHCEACFSHNFCTKCKEGLYLHKGRCYPACPEGSSAANGTMECSSPAQCEMSEWSPWGPCSKKQQLCGFRRGSEERTRRVLHAPVGDHAACSDTKETRRCTVRRVPCPEGQKRRKGGQGRRENANRNLARKESKEAGAGSRRRKGQQQQQQQGTVGPLTSAGPA
notes: not shown: human Fc region
B2: RSPO3-Fc fusion protein (Fc fusion)
chain: T2 sequence
notes: Full-length human RSPO3 ligated in-frame to a human Fc region, expressed in insect cells; not shown: human Fc region
B3: RSPO2-Fc fusion protein (Fc fusion)
chain: QGNRWRRSKRASYVSNPICKGCLSCSKDNGCSRCQQKLFFFLRREGMRQYGECLHSCPSGYYGHRAPDMNRCARCRIENCDSCFSKDFCTKCKVGFYLHRGRCFDECPDGFAPLEETMECVEGCEVGHWSEWGTCSRNNRTCGFKWGLETRTRQIVKKPVKDTIPCPTIAESRRCKMTMRHCPGGKRTPKAKEKRNKKKKRKLIERAQEQHSVFLATDRANQ
notes: Full-length human RSPO2 ligated in-frame to a human Fc region, expressed in insect cells; not shown: human Fc region
B4: RSPO4-Fc fusion protein (Fc fusion, not shown: a dimerising Fc or GST; small tags and cut ends)
chain: NRRKKQVGTGLGGNCTGCIICSEENGCSTCQQRLFLFIRREGIRQYGKCLHDCPPGYFGIRGQEVNRCKKCGATCESCFSQDFCIRCKRQFYLYKGKCLPTCPPGTLAHQNTRECQGECELGPWGGWSPCTHNGKTCGSAWGLESRVREAGRAGHEEAATCQVLSESRKCPIQRPCPGERSPGQKKGRKDRRPRKDRKLDRRLDVRPRQPGLQP
notes: Full-length human RSPO4 ligated in-frame to a human Fc region, expressed in insect cells
B5: anti-RSPO3 antibody 131R003 (antibody, human IgG2, kappa, V domains shown)
VH: QVQLKQSGPELVKPGASVKISCKASGYTFTDYSIHWVKQNHGKSLDWIGYIYPSNGDSGYNQKFKNRATLTVDTSYSTAYLEVRRLTFEDSAVYYCATYFANYFDYWGQGTTLTVSS
VL: DIVLTQSPASLAVSLGQRATISCKASQSVDYDGDSYMNWYQQKPGQPPKLLIYAASNLESGIPARFSGSGSGTDFTLNIHPVEEEDAATYYCQQSNEDPLTFGAGTKLELKR
notes: Same light chain as 131R002; also called parental 131R003; 131R003 (IgG2)
B6: anti-RSPO3 antibody 131R002 (antibody, human IgG2, kappa, V domains shown)
VH: B5 VH with K5Q, Q6E, Y76S
VL: B5 VL
notes: Same light chain as 131R003; also called 131R002 (IgG2)
B7: 131R003CDR3 variant (antibody, human IgG2, kappa, V domains shown)
VH: B5 VH with Y103N
VL: B5 VL
notes: also called 131R003 CDR3 variant (IgG2); 131R003 Heavy chain - Variant 1
B8: humanized anti-RSPO3 antibody h131R011 (antibody, human IgG2, kappa, V domains shown)
VH: QVQLVQSGAEVKKPGASVKVSCKASGYTFTDYSIHWVRQAPGQGLEWIGYIYPSNGDSGYNQKFKNRVTMTRDTSTSTAYMELSRLRSEDTAVYYCATYFANNFDYWGQGTTLTVSS
VL: DIQMTQSPSSLSASVGDRVTITCKASQSVDYDGDSYMNWYQQKPGKAPKLLIYAASNLESGVPSRFSGSGSGTDFTLTISPVQAEDFATYYCQQSNEDPLTFGAGTKLELKR
notes: IgG2; also called h131R011 (IgG2)
B9: humanized anti-RSPO3 antibody h131R007 (antibody, human IgG2, kappa)
heavy: QVQLVQSGAEVKKPGASVKVSCKASGYTFTDYSIHWVRQAPGQGLEWIGYIYPSNGDSGYNQKFKNRVTMTRDTSTSTAYMELSRLRSEDTAVYYCATYFANNFDYWGQGTTLTVSSASTKGPSVFPLAPCSRSTSESTAALGCLVKDYFPEPVTVSWNSGALTSGVHTFPAVLQSSGLYSLSSVVTVPSSNFGTQTYTCNVDHKPSNTKVDKTVERKCCVECPPCPAPPVAGPSVFLFPPKPKDTLMISRTPEVTCVVVDVSHEDPEVQFNWYVDGVEVHNAKTKPREEQFNSTFRVVSVLTVVHQDWLNGKEYKCKVSNKGLPAPIEKTISKTKGQPREPQVYTLPPSREEMTKNQVSLTCLVKGFYPSDIAVEWESNGQPENNYKTTPPMLDSDGSFFLYSKLTVDKSRWQQGNVFSCSVMHEALHNHYTQKSLSLSPGK
light: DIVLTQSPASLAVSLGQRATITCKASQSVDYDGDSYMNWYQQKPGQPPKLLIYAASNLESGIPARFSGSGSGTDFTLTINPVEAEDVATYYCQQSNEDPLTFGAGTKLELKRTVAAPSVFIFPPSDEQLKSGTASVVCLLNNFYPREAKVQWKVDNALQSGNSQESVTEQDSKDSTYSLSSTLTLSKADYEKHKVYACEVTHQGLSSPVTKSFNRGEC
notes: IgG2; also called h131R005/131R007; h131R005

Each binder was assayed against T1, LGR5-Fc fusion protein (assay: SPR (Biacore 2000), RSPO-Fc amine-coupled to CM5 chip, soluble LGR5-Fc injected 100-0.78 nM).
Experimental: Binding affinities between RSPO proteins and LGR5 were analyzed by surface plasmon resonance. A soluble LGR5-Fc construct was generated using standard recombinant DNA techniques. Specifically, amino acids 1-564 of human LGR5 were ligated in frame to human Fc and the recombinant LGR5-Fc fusion protein was expressed in insect cells using baculovirus. The LGR5-Fc fusion protein was purified from the insect medium using protein A chromatography. Cleavage of the LGR5 signal sequence results in a mature LGR5-Fc fusion protein containing amino acids 22-564 of LGR5. […] Two-fold dilutions of soluble LGR5-Fc were injected over the chip surface (100 nM to 0.78 nM). Kinetic data were collected over time using a Biacore 2000 system from Biacore Life Sciences (GE Healthcare) and the data were fit using the simultaneous global fit equation to yield affinity constants (KD values) for each RSPO protein (Table 3).

Going from B1 to B2, the Kd falls from 110 nM to under 1 nM. The second binds more tightly here.

Compared with B3, B4 is 5.2-fold higher in Kd: 14 nM for the first, 73 nM for the second.

These binders were tested against T2, recombinant human RSPO3 protein, … (assay: SPR (Biacore 2000), biotinylated human RSPO3 captured on streptavidin chip, antibody injected 100-0.78 nM).
Experimental: The antibodies were serially diluted 2-fold from 100 nM to 0.78 nM in HBS-P (0.01M HEPES pH 7.4, 0.15M NaCl, 0.005% v/v Surfactant P20) and were injected over the chip surface. Kinetic data were collected over time and were fit using the simultaneous global fit equation to yield affinity constants (KD values) for each antibody.

In order of falling Kd:
1. B6  8.2 nM
2. B5  7.3 nM

These binders were tested against T3, human RSPO3 (recombinant, R&D Systems) (assay: SPR (Biacore 2000), antibody captured by goat anti-human IgG on CM5 chip, human RSPO3 injected 300-37.5 nM).
Experimental: The method used was different than described in Example 3. A goat anti-human IgG antibody was coupled to a carboxymethyl-dextran (CM5) SPR chip using standard amine-based chemistry (NHS/EDC) and blocked with ethanolamine. Antibodies (purified antibody or culture supernatant) were diluted to a concentration of 10 μg/ml in HBS-P-BSA (0.01M HEPES pH7.4, 0.15M NaCl, 0.005% v/v Polysorbate 20, 100 μg/ml BSA) and captured onto the chip via the anti-human IgG antibody. […] After each antigen injection 5 μl of 100 mM H₃PO₄ was injected to remove the antigen-antibody complex and a subsequent injection performed. Kinetic data were collected over time and were fit using the simultaneous global fit equation to yield affinity constants (KD values) for each antibody (Table 4).

In order of falling Kd:
1. B5  1.9 nM
2. B7  1.7 nM
3. B6  1.3 nM
4. B8  0.686 nM
5. B9  0.654 nM
